What is called Kd is the concentration at which binding is half-saturated. Higher therefore signals weaker binding.

T1: 10E8-GT10.2 epitope scaffold (designed scaffold 10E8-GT10.2 with …, N-linked glycosylation sites added (positions not given))
T1 chain: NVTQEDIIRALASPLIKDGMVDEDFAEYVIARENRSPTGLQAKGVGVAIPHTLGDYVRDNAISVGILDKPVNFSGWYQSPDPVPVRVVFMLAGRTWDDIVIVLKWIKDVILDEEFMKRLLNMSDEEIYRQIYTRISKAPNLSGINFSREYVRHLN

B1: NHP-10E8_MPER-GT10v55_W21-11 (antibody, V domains shown)
VH: EVRLVESGGGLVQPGGSLRLSCAASGFTFSDYYMSWVRQAPGKGPEWVGFIRNKANGGTAEYAASVKGRFTISRDDSKSIASLQMNSLKTEDTAVYYCARDRGNYNFWSGYSGSDYFDYWGQGVLVTVSS
VL: QSVLTQPPSVSAAPGQKVTISCSGSSSNIGRSYVSWYQQVPGTAPKLLIYDNNKRPSGVSDRFSGSKSGTSASLAITGLQTGDEADYYCGAWDSSLSAGLFGGGTRLTV
B2: NHP-Comp_MPER-GT10v55_W26-10 (antibody, V domains shown)
VH: EVQLVESGGGLAKPGGSLRLSCVASGFRFSNYWMNWVRQTPGKGLEWISVINSGGVITYYADSVKGRFTISRDNSKNTLSLQMNSLRTEDTAVYYCARQSLDWGLDSWGQGVVVTVSS
VL: SSELTQDPAVSVALGQTVRITCQGDSLRNHYASWYQQKPGQAPVLVVYGNNNRPSGIPERFSGSRSGNTASLTITGAQVEDEADYYCDSWDSSGTHRVFGGGTRLTV
B3: NHP-10E8_MPER-GT10v55_W21-18 (antibody, V domains shown)
VH: QLQLQESGPGLVKPSETLSLTCAVSGGSISSSYWSWIRQAPGKGLEWIGYIYGSGSSTNYNPSLKSRVTLSVDTSKNQLSLKLSSVTAADTAVYYCARDVKDYNFWSGYYEDGYFDYWGQGVLVTVSS
VL: DIVMTQTPLSLPVTPGEPASISCRSSQSLLHSNGNTYLHWYLQKPGQSPRLLIYKVTNRESGVPDRFSGSGSGTDFTLKISRVEPEDVGVYYCMQSTKDPYSFGQGTKVEIK
B4: NHP-Comp_MPER-GT10v55_W21-01 (antibody, V domains shown)
VH: QVQLQESGPGLVKPSETLSLTCAVSGGSFSSYWWGWIRQPPGKGLEWIGSIYGSSGSTEYNPSLKSRATISRDTSKNQFSLKLSSVTAADTAVYYCARVKAPEIFGVVITGYYFDYWGQGVLVTVSS
VL: SYELTQPLSVSVALGQMARITCGGNNIGRKYVYWYQQKPDQAPVLVIYEDSKRPSGIPERFAGSNSGNTATLTIDGAQARDEADYYCQVWDSSTAYIFGAGTRLTV
B5: NHP-Comp_MPER-GT10v55_W21-07 (antibody, V domains shown)
VH: EVQLVESGGGLAKPGGSLRLSCAASGFTFSSYWMNWVRQTPGKGLEWISAINSGGGSTYYADSVKGRFTISRDNSKNTLSLQMNSLRAEDTAVYYCAKGYGLDSWGQGVVVTVSS
VL: QAAPTQPPSVSGSPGQSVTISCTGTSSDIGYYNAVSWYQQHPGKAPKLMIYEVSKRPSGVSDRFSGSKSGNTASLTISGLQAEDEADYYCSSYAGSNTFIFGAGTRLTV
B6: NHP-Comp_MPER-GT10v55_W26-04 (antibody, V domains shown)
VH: QVQLQESGPGVVKPSETLSLTCAVSGDSISDSYWWSWIRQPPGKGLEWIGYIYGSSTNTNYNPSLKSRVTISKDTSKNQFSLKLSSVTAADTAVYYCARESRWLEEYPLNTFDYWGQGVLVTVSS
VL: DIVMTQTPLSLPVTPGEPASISCRSSQSLLDSYGYIHLHWYLQKPGQSPQLLIYLGSNRASGVPDRFSGSGSGTDFTLKISRVEAEDVGVYYCMQTLQTPRTFGQGTKVEIK
B7: NHP-10E8_MPER-GT10v55_W21-14 (antibody, V domains shown)
VH: QVQLQESGPGLVKPSETLSLTCAVSGGSISSGYYYWSWIRQPPGKGLEWIGYITYSGSTSYNPSLKSRVTISRDTSKNQFSLKLSSVTAADTAVYYCASAPSYYNFWSGYYHLDYFDYWGQGVLVTVSS
VL: QSVLTQPPSVSGAPGQRVTISCTGSSSNIGGYYVSWYQQLPGTTPKLLIYQDNKRPSGVSDRFSGSKSGTSASLTITGLQTEDEADYYCLSYDSSLSAHGLFGGGTRLTV
B8: NHP-10E8_MPER-GT10v55_W21-16 (antibody, V domains shown)
VH: QVQLQESGPGLVKPSETLSLTCAVSGGSISSGYYYWSWIRQPPGKGLEWIGYITYSGSTSYNPSLKSRVTISRDTSKNQFSLKLSSVTAADTAVYYCARVGVYYNFWSGYYTNTYFDYWGQGVLVTVSS
VL: QAAPTQPPSVSGSPGQSVTISCTGTSSDIGYYNAVSWYQQHPGKAPKLMIYEVSKRPSGVSDRFSGSKSGNTASLTISGLQAEDEADYYCSSYAGSNTFIFGAGTRLTV
B9: NHP-Comp_MPER-GT10v55_W26-06 (antibody, V domains shown)
VH: QVQLVQSGAEVKQPGASVKVSCLASGYTFTSYSIHWLRQAHGQRLEWMGWINTATGNPTYTQGFKERFTFSMDTSITTAYLQISSLKTEDTAVYYCARLYRDFWGGYYASSLDVWGRGVLVTVSS
VL: SYDLTQPPSVSVSPGQTARITCGGENIGSEPVHWYQQKPPQAPLQVIYSDSERPSGIPERFSGSKSGNTATLTISGVEAGDEADYYCQVWDISSDHPYIFGAGTRLTV
B10: NHP-Comp_MPER-GT10v55_W26-02 (antibody, V domains shown)
VH: QLQLQESGPGLVKPSETLSVTCAVSGGSISGGYGWSWIRQPPGKGLEWIGHIFDSFGNTYYNPSLKSRVTISTDTSKNQFSLKLSSVTAADTAVYYCARETVLGAGDYFDSWGQGVLVTVSS
VL: DIQMTQSPSSLSASVGDTVTITCRASQDINNYLAWYQQKPGKAPKPLIYHASYLESGVPSRFSGSGSGTDFTLTISSLQPEDFAIYYCQQHNAYPFTFGPGTKLDIK
B11: NHP-Comp_MPER-GT10v55_W21-02 (antibody, V domains shown)
VH: QVQLQESGPAVVKPSETLSLTCAVSGGSISSNNWWSWIRQSPGKGLEWIGGLYGSGGNTEYYPSLKSRVTISVDTSKNQFSLKLSSVTAADTAVYYCASPAPYYGRGYSFDAFDFWGQGLRVTVSS
VL: QSALTQPPSVSKSLGQSVTISCTGTSSDIGGYNGVSWYQQHSGTAPKLLIYDVNKRPSGVSDRFSGSKSGNTASLTISGLQAEDEADYYCCSYRGGSTYWVFGGGTRLTV
B12: NHP-Comp_MPER-GT10v55_W26-11 (antibody, V domains shown)
VH: EVQLVESGGGLAKPGGSLRLSCAASGFTFSNYWMCWVRQAPGKGLEWISVINSVTSGTYYADSVKGRFTISRENAKNTLYLQMDRLRVEDTAVYYCAWGLGLTAPPVYWGQGVLVTVSS
VL: ETVVTQEPSLSVSPGGTVTLTCGLSSGSVSTSNYPSWYQQTPGQAPRTLVYRTNIRPSGVPDRFSGSILGNKAALTITGAQADDESDFYCLFYMGSGIWVFGGGTRLTV
B13: NHP-10E8_MPER-GT10v55_W21-10 (antibody, V domains shown)
VH: EVRLVESGGDLVQPGGSLRLSCAASGFTFSYYSMSWVRQAPGKGLEWIGFIKNKADGGTEAYAESVKGRFTISRDDSENTLYLQMNSLKTDDTAVYSCTRGRVYYNFWSGFYTGGRFDVWGPGVLVTVSS
VL: DIVMTQTPLSLPVTPGEPASISCRSSQSLLDSEDGNTYLDWYLQKPGQSPQLLIYEVSNRASGVPDRFSGSGSDTDFTLKISRLEAEDVGVYYCMQGLEFPFTFGPGTKLDIK
B14: NHP-10E8_MPER-GT10v55_W21-13 (antibody, V domains shown)
VH: QLQLQESGPGLVKPSETLSLTCAVSGGSISGGYGWSWIRQPLGKGLEWIGHIFGSIGSTYYNPSLKSRVTISTDTSKNQFSLKLSSVTAADTAVYYCARTRSFYNFWSGYYTRHAFDFWGQGLRVTVSS
VL: DIVMTQTPLSLPVTLGEPASISCRSSQSLLDSEDGNTYLEWYLQKPGQSPQLLIYEVSNRASGVPDRFSGSGSDTDFTLKISRVEAEDVGVYYCMQALEFPPTFGQGTKVEIK
B15: NHP-Comp_MPER-GT10v55_W21-03 (antibody, V domains shown)
VH: QMQLQESGPGLVKPSETLPLTCAVSGASISSNFWSWIRQAPGMGLEWIGRIYGNGGSTDYNPSLKSRVTISIDTSKNQFSLKLSSVTAADTAVYFCASSFLFRFDVWGPGVLVTVSS
VL: QSVLTQPPSASGAPGQSVTISCSGSSSNIGGNHVYWYQQLPGTAPKLLIYYSNQRPSGVPDRFSGSKSGTSASLAITGLRSEDEADYYCAAWDDSLSSYIFGAGTRLTV
B16: NHP-Comp_MPER-GT10v55_W21-08 (antibody, V domains shown)
VH: EVQLVESGGGLVQPGGSLRLSCAASGFTFSHYGLHWVRQAPGKGLEWVAVIWSDGNKKYYADSVKDRFTISRDNSKNMLYLQMNNLKLEDTAVYYCATYTYGDWGQGVLVTVSS
VL: SYELTQPPSVSVSPGQMARITCGGDNLGSKYVHWYQQKPPQAPVLVIYDDSERPSGIPERFSGSKSGNTATLTISGVEAGDEADYYCQVWDSSSDNWVFGGGTRLTV
B17: NHP-Comp_MPER-GT10v55_W26-08 (antibody, V domains shown)
VH: QVTLKESGPALVKPTQTLTLTCTFSGFSISTTGTGVGWIRQPPGKALEWLATISWNDSKYYSTSLKSRLTISKDTSKNQVVLTFTNMDPVDTATYSCARVLQPTITTTNRFDVWGPGVLVTVSS
VL: SYDLTQPPSVSVSPGQTARITCGGDNIGSKYVHWYQQKPPQAPVLVIYYDTERPSGIPERFSGSKSGNTATLTISGVEAGDEADYYCQVWDSSSDHNVFGSGTKLTV
B18: NHP-10E8_MPER-GT10v55_W21-15 (antibody, V domains shown)
VH: QLQLQESGPGLVKPSETLSLTCAVSGGSISSSNWWSWIRQPPGKGLEWIGRISGSGGSTSDNPSLKSRVTISKDTSKNQFSLKLSSVTAADTAVYYCASESFYYNFWSGYYQENSLDVWGRGVLVTVSS
VL: QPVLTQPTSLSASPGASARLSCTLSSGINVGSYSIFWYQQKPGSPPRYLLYYYSDSSKHQGSGVPSRFSGSKDASANAGLLLISGLQSEDEADYYCAIWHSSAYVLFGGGTRLTV
B19: NHP-Comp_MPER-GT10v55_W21-04 (antibody, V domains shown)
VH: DVQLVESGGGLVKPGGSLRLSCVASDFTFSSYEMHWVRQAPGKGLEWVSLISESGDTTYYADSVKGRFTISRDNAKNSLFLQMNSLRAEDTAVYYCTRAITVFGVVITHFDYWGQGVLVPVSS
VL: QSALTQPPSVSKSLGQSVTISCTGTSSDIGGYYAVSWYQQHSGTAPRLLIYEVSKRPSGVSDRFSGSKSGNTASLTISGLQAEDEADYYCGSFRTGYTYIFGAGTRLTV
B20: NHP-10E8_MPER-GT10v55_W21-17 (antibody, V domains shown)
VH: QVQLQESGPGLVKPSETLSLTCVVAGGSISDDYYWSWIRQSPGKGLEWIGYIYGSGGGTKYNPSLKNRVTISIDTSKNQFSLKLSSVTAADTAVYYCARELRYYNFWSGYYDNYYGLDSWGQGVVVTVSS
VL: DIVMTQTPLSLPITPGEPASISCRSSQSLLHSTGNTYLHWYLQKPGQSPQLLIYGGSNRASGVPDRFSGSGSGTDFTLKISKVEAEDVGVYYCVQAIAFPFTFGPGTKLDIK

This experiment concerns the target T1, 10E8-GT10.2 epitope scaffold.
For B1, binding was characterised by a dissociation constant (Kd) of 8110 nM.
With B2 the figure was 74.6 nM; with B3, 6000 nM.
With B4 the figure was 2630 nM; with B5, 5510 nM.
B6 gave a dissociation constant (Kd) of 20.8 nM.
Take B7: the Kd turned out to be 2400 nM.
Regarding B8, the Kd came to 2400 nM.
Turning to B9, the Kd is 0.112 nM.
B10 came in with a Kd of 3.18 nM.
The figure for B11 is 6840 nM; for B12 it is 12.8 nM; for B13 it is 0.81 nM.
B14 showed a Kd of 1300 nM.
Consider B15, for which the dissociation constant (Kd) came out at 10.8 nM.
With B16 the figure was 15.1 nM.
The figure for B17 is 2.18 nM; for B18 it is 5130 nM; for B19 it is 15.6 nM.
B20 showed a Kd of 2.41 nM.

For the origin of these results see paper PMC11147780, “Vaccination induces broadly neutralizing antibody precursors to HIV gp41” (Nature Immunology, 2024).
